Test results published in patent US11248022B2, “Glypican-3 peptide reagents and methods” (THE REGENTS OF THE UNIVERSITY OF MICHIGAN, priority 2017, dated 2022).
Where “and” joins values, the source holds several entries; their conditions need not be identical. Identical values can stand only once. Ends that are not written are not given here.

What was measured:
SK-Hep1 cells = experiment: Confocal microscopy of peptide binding to SK-Hep1 cells; assay type: cell-based, human
Description: (§1) FIGS. 6-2A-Q show validation of specific peptide binding to cells in vitro. […] The Hep3B versus SK-Hep1 difference was also larger for antibody than QLE (P=2.3×10^−8, 6.0-fold larger). Intensity was measured with 6 replicates per condition and fitted to an ANOVA model with terms for 9 means to log-transformed data. […] We further validated specific peptide binding to GPC3 using siRNA knockdown. […] Q) Quantified fluorescence intensities. The siCL vs siGPC3 difference was 7.4 times bigger for ALL than the same difference for QLE (P=7.8×10^−5), and the difference for antibody was 8.9 times bigger than for QLE (P=2.5×10^−5), by ANOVA on log-transformed data. Results are an average of 6 images collected independently.
On confocal microscopy, it was shown that ALL*-Cy5.5 binds to the surface (arrows) of cells with different levels of GPC3 expression. […] GPC3 is highly overexpressed in Hep3B cell cytosol and membrane while moderately expressed in HepG2 cells. No GPC3 expression is observed in SK-Hep1 cells. Tubulin serves as loading control for either cytosol or membrane fractions loaded.

[1] = Histology of vital organs post-peptide administration (acute toxicity); assay type: in vivo, mice; settings: 2 hours post-injection; brain, heart, lung, liver, spleen, kidney, stomach, intestine, cecum, colon
Description: Vital organs were harvested post peptide administration in mice to evaluate acute toxicity of peptide probe with histology observation. Mice bearing human HCC xenograft tumors were sacrificed 2 hours post-injection of ALL*-Cy5.5.

Hep3B cells = experiment: Apparent dissociation constant on Hep3B cells by flow cytometry; assay type: binding, human
Description: The apparent dissociation constant (kd) was measured for the optimized GPC3 peptide to Hep3B cells to provide an assessment of peptide binding affinity. The ALL*-Cy5.5 peptide reagent was serially diluted in PBS at concentrations ranging from 0 to 200 nM in 25 nM increments and incubated with Hep3B cells. The mean fluorescence intensities was measured on flow cytometry. The equilibrium dissociation constant kd=1/ka was calculated by performing a least squares fit of the data to the non-linear equation I=(I0+Imaxka[X])/([…]). I0and Imax are the initial and maximum fluorescence intensities, corresponding to no peptide and at saturation, respectively, and [X] represents the concentration of the bound peptide.

[2] = test system: GPC3 positive tumor (from Hep3B cells); experiment: In vivo whole body fluorescent imaging of HCC xenograft; settings: 2 hours post injection
Description: Mice bearing HCC xenograft tumor (arrowheads) were i.v. injected with 250 μL of 300 μM near NIR GPC3 targeting peptide ALL*-Cy5.5, scrambled control peptide QLE*-Cy5.5 and unlabeled Cy5.5 free dye alone. ALL*-Cy5.5 was also injected in mice bearing GPC3 negative tumor (from SK Hep-1 cells, arrows) as control of EPR effect. Pre-injection imaging confirmed no autofluorescence was present.

GPC3 = molecular target: T1, GPC3 (Homo sapiens, UniProt P51654); experiment: siRNA knockdown of GPC3 in Hep3B cells, confocal fluorescence; assay type: cell-based
T1 construct: endogenous in cells; host or cells: Hep3B human HCC cells (siCL control vs siGPC3 knockdown); also HepG2; SK-Hep1 as GPC3-negative control
T1 sequence (P51654 25-554): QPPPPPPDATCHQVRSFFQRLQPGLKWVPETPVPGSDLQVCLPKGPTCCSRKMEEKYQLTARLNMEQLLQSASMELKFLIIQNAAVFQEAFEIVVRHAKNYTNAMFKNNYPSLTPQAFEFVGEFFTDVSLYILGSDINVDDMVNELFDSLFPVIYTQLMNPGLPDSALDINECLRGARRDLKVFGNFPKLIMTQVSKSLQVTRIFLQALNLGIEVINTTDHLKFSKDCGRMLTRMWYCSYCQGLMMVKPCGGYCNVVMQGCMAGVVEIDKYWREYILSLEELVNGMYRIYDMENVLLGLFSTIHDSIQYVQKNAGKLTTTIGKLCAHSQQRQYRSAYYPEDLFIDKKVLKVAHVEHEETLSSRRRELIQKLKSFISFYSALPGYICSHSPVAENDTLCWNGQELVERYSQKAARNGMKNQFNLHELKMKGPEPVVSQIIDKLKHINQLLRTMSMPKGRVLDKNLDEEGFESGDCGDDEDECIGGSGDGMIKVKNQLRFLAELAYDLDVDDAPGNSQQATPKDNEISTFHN
Description: as §1
The specificity of lead candidate peptide reagent binding was validated by siRNA knockdown of GPC3 in human HCC cells. The cells were transfected with siRNA to knockdown cell surface expression of GPC3. […] These cells were transfected with non-targeting siRNA (siCL) for use as control. […] FIG. 6-1D,E show ˜4-fold reduction in fluorescence intensity with both the peptide reagent and anti-GPC3 antibody, respectively, for Hep3B cells transfected with siRNA (siGPC3) to knock down GPC3 expression. […] FIG. 6-2M, N, O and P show the same result as original FIG. 6-1A, B, D and E.

[3] = Biodistribution of peptide in excised organs; assay type: in vivo, mice; settings: excised organs 2 hours post injection, n=5
Description: To assess the biodistribution of peptide probe, mice (n=5) were sacrificed 2 hours after injection of 250 μL of 300 μM ALL*-Cy5.5 using a fluorescence imaging system (IVIS Spectrum, PerkinElmer, Mass.). The organs were harvested and imaged ex vivo. Mice injected with scrambled control peptide, QLE*-Cy5.5 and free dye Cy5.5 were imaged with the same filters and exposure time. Absence of auto fluorescence was confirmed in PBS injected mice. The amount of fluorescent signal in each organ was quantified as a percentage of total fluorescence signal (p/s) in each mouse. Ex vivo fluorescence images taken of internal organs as well as resected tumor 2 hours post injection of probes are shown in FIG. 10A. Free Cy5.5 dye and Cy5.5 labeled targeting and scrambled peptides accumulated most in the liver and kidneys of mice, followed by GI tract and spleen.

[4] = test system: HCC xenograft tumor overexpressing GPC3; experiment: In vivo handheld dual axes confocal endomicroscope imaging; design: species or system mice
Description: GPC3 expression from human HCC xenograft tumors was evaluated in real time by collecting optical sections in vivo using a handheld 5.5 mm diameter dual axes confocal endomicroscope. A solid-state diode laser (300 mW, CNI Laser Inc.) provided illumination at λex=671 nm. A parabolic mirror focused the illumination and collection beams to overlap below the tissue surface with lateral and axial resolution of 2 and 5 μm, respectively. A compact, 3D monolithic scanner located in the distal tip provided large vertical displacements and wide angular deflections to produce images in the vertical (XZ) and horizontal (XY) planes with a FOV of 1000×430 and 1000×1000 μm^2, respectively. NIR fluorescence is collected and passes through a band pass filter (FF01-716/40-25, Semrock) that transmits from 696-736 nm with >93% efficiency for detection with a photomultiplier tube (PMT, H7422PA-40, Hamamatsu) detector. The peptides were injected via the tail vain, and dissected away the skin overlying the tumor to gain access. The distal tip of the endomicroscope was placed in contact with the tumor using a drop of saline to couple the light. Laser power <2 mW on the tissue was used to avoid photobleaching. NIR fluorescence images were collected at 5 frames per sec. 3D volumetric images were reconstructed from a series of images collected in the vertical plane using Amira software (ver 5.4.3, FEI Corporation).
The probe was small enough to be comfortably held in the surgeon's hand during surgery, FIG. 12A, for in vivo imaging of biomarker expression. Its diameter was 5.5 mm and delivered 671 nm near-infrared laser at 2 mW. Mouse carrying HCC xenograft tumor overexpressing GPC3 was first injected with 250 μL 300 μM ALL*-Cy5.5 peptide intravenously and after 2 hours the probe was held in contact with exposed subcutaneous tumor to acquire in vivo peptide binding images, FIG. 12B. Images were collected in either the vertical or horizontal plane with 430 μm depth or 1000×1000 μm^2 area, respectively, at 5 frames per second. With measured lateral resolution of 2.49 μm and axial resolution of 4.98 μm, each peptide stained cell can be clearly seen (arrows). […] Strong uptake (arrows) of ALL*-Cy5.5 in tumor was captured on optical sections collected in the horizontal (1000×1000 μm^2, Video 1) FIG. 12C and vertical (1000×430 μm^2, Video 2) FIG. 12D planes, respectively. A series of vertical cross-section images were reconstructed into 3D MIP volume (Video 3), FIG. 12E.

ALLANHEELFQT (SEQ ID NO: 1) peptide labeled with Cy5.5 via a GGGSK linker on the C-terminus (ALLANHEELFQTGGGSK-{Cy5.5}) [ALL*-Cy5.5]
fluorescence intensity from binding to cell surface (SK-Hep1 cells): minimal signal | acute peptide toxicity on histology of vital organs [1]: No signs of acute peptide toxicity | Kd (Hep3B cells): 71 nM and 71.3 nM | mean tumor signal vs scrambled peptide, GPC3 negative tumor and free dye [2]: significantly higher | target-to-background (T/B) ratio ([2]; mean±SD): 3.91±0.58 | siCL vs siGPC3 difference relative to the same difference for QLE (GPC3; ANOVA on log-transformed data): 7.4 times | fluorescence intensity remaining (% of siCL control) (GPC3; GPC3 knockdown cells): 27% | binding to cell surface (GPC3; Hep3B cells transfected with non-targeting siRNA (siCL)): strong binding | reduction in fluorescence intensity (GPC3; Hep3B cells transfected with siGPC3 vs siCL): ~4 fold | fluorescence intensity (GPC3; siCL treated Hep3B control cells): 54.3±6.0 | fluorescence intensity (GPC3; siGPC3 knockdown Hep3B cells): 14.7±1.5 | signal in the tumor vs scrambled probe, GPC3 negative tumor, free dye [3]: significantly higher | fluorescent signal relative to QLE*-Cy5.5 ([4]; 2 hours after i.v. injection): 2.9 fold | fluorescent intensity at tumor ([4]; 2 hours after i.v. injection, n=8): 47±13 | uptake/staining in tumor on optical sections ([4]; horizontal and vertical planes): Strong uptake
